# Where no end group is shown, it is not given here.
# T1: Human Rev1 C-terminal domain (Rev1-CT; residues 1158-1251) (human, UniProt Q9UBZ9 1158-1251)
# T1 sequence (looked up): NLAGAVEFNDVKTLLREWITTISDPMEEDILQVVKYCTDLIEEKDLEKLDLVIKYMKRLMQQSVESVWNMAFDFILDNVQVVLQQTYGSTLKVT
# B1: Pol32: subunit of yeast Polζ (homologue of human PolD3) (protein, UniProt P47110 1-350, looked up)
# DNA polymerase delta subunit 3: MDQKASYFINEKLFTEVKPVLFTDLIHHLKIGPSMAKKLMFDYYKQTTNAKYNCVVICCYKDQTIKIIHDLSNIPQQDSIIDCFIYAFNPMDSFIPYYDIIDQKDCLTIKNSYELKVSESSKIIERTKTLEEKSKPLVRPTARSKTTPEETTGRKSKSKDMGLRSTALLAKMKKDRDDKETSRQNELRKRKEENLQKINKQNPEREAQMKELNNLFVEDDLDTEEVNGGSKPNSPKETDSNDKDKNNDDLEDLLETTAEDSLMDVPKIQQTKPSETEHSKEPKSEEEPSSFIDEDGYIVTKRPATSTPPRKPSPVVKRALSSSKKQETPSSNKRLKKQGTLESFFKRKAK
# What was measured:
# Rev1-CT domain = conditions: human RIR motifs; cited from earlier work
# Polκ RIR (Homo sapiens) [1] = target: Polκ RIR (Homo sapiens) (UniProt Q9UBT6); assay: SPR; conditions: cited from earlier work
# Polκ RIR (Homo sapiens) [2] = target: Polκ RIR (Homo sapiens) (UniProt Q9UBT6); assay: intrinsic tryptophan fluorescence; conditions: cited from earlier work
# yeast Rev7 = conditions: unstructured C-terminal part of Pol32, purified proteins; cited from earlier work
# [3] = target: T1, Human Rev1 C-terminal domain (Rev1-CT; …); assay: SPR
molecule,measurement,setting,value
CEMSHKKSFFDKKRSER [Polκ-RIR],affinity range of Rev1-CT interactions with RIR motifs,Rev1-CT domain,µM to mM affinities
Rev1 CTD (from UniProt Q9UBZ9),Kd,Polκ RIR (Homo sapiens) [1],7600 nM
same,Kd,Polκ RIR (Homo sapiens) [2],300 nM
B1,Rev7 - Pol32 interaction,yeast Rev7,direct interaction
EMSHKKSFFDKKRSER [Polκ-RIR peptide (residues 560-575) modified with an N-terminal cysteine residue],Kd,[3],1700 ± 600 nM

# Source: paper PMC4898654 (Biochemistry, 2016)
